We go through 7 molecules from PMC10397247.

Experiment [1] addresses T1, 4H918-bA.
T1 chain: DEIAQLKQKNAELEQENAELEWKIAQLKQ
Kind of experiment: two-hybrid library CCNG1.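 Also: natural log of median RNA to DNA barcode read ratio; higher means stronger binding.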

Experiment [2] deals with T2, 4H4073-bA.
T2 chain: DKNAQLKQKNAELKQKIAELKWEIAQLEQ
The experiment in a line: two-hybrid library CCNG1.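 Also: natural log of median RNA to DNA barcode read ratio; higher means stronger binding.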

In experiment [3] the target is T3, 4H346-bA.
T3 chain: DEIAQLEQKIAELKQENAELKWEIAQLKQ
Kind of experiment: two-hybrid library CCNG1.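 Also: natural log of median RNA to DNA barcode read ratio; higher means stronger binding.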

Experiment [4] has as its target T4, 4H3112-bA.
T4 chain: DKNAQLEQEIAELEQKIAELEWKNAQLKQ
Kind of experiment: two-hybrid library CCNG1.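 Also: natural log of median RNA to DNA barcode read ratio; higher means stronger binding.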

The target of experiment [5] is T5, 4H754-bA.
T5 chain: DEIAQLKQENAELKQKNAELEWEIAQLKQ
The experiment in a line: two-hybrid library CCNG1.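 Also: natural log of median RNA to DNA barcode read ratio; higher means stronger binding.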

In experiment [6] the target is T6, 4H683-bA.
T6 chain: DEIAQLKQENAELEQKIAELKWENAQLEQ
The experiment in a line: two-hybrid library CCNG1.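 Also: natural log of median RNA to DNA barcode read ratio; higher means stronger binding.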

Experiment [7] deals with T7, 4H780-bA.
T7 chain: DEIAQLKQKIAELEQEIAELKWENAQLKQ
The experiment in a line: two-hybrid library CCNG1.

Experiment [8] deals with T8, 4H3926-bA.
T8 chain: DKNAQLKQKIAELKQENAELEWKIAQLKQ
The experiment in a line: two-hybrid library CCNG1.

The target in experiment [9] is T9, 4H797-bA.
T9 chain: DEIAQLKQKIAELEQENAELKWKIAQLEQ
The experiment in a line: two-hybrid library CCNG1.

Experiment [10] concerns the target T10, 4H855-bA.
T10 chain: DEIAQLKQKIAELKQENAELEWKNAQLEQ
Kind of experiment: two-hybrid library CCNG1.

Experiment [11] deals with T11, O15-bA.
T11 chain: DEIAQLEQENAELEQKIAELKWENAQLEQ
Kind of experiment: two-hybrid library CCNG1.

For experiment [12], the target named is T12, 4H3427-bA.
T12 chain: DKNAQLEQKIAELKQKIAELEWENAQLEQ
The experiment in a line: two-hybrid library CCNG1.

Experiment [13] deals with T13, 4H457-bA.
T13 chain: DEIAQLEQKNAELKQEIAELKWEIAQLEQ
The experiment in a line: two-hybrid library CCNG1.

The target of experiment [14] is T14, 4H575-bA.
T14 chain: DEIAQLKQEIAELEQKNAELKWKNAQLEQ
Kind of experiment: two-hybrid library CCNG1.

Experiment [15] addresses T15, 4H3010-bA.
T15 chain: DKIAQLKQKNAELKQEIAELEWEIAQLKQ
Kind of experiment: two-hybrid library CCNG1.

Experiment [16] addresses T16, 4H2702-bA.
T16 chain: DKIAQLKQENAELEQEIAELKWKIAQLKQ
Kind of experiment: two-hybrid library CCNG1.

Experiment [17] has as its target T17, 4H953-bA.
T17 chain: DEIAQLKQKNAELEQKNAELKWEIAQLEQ
Kind of experiment: two-hybrid library CCNG1.

Experiment [18] deals with T18, O4-bA.
T18 chain: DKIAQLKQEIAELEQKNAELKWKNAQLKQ
The experiment in a line: two-hybrid library CCNG1.

In experiment [19] the target is T19, 4H968-bA.
T19 chain: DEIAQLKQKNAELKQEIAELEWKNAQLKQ
The experiment in a line: two-hybrid library CCNG1.

Experiment [20] addresses T20, O7-bA.
T20 chain: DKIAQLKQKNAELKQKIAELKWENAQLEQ
Kind of experiment: two-hybrid library CCNG1.

Experiment [21] deals with T21, O6-bA.
T21 chain: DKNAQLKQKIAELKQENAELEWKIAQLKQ
Kind of experiment: two-hybrid library CCNG1.

The target of experiment [22] is T22, O5-bA.
T22 chain: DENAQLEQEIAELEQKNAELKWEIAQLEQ
Kind of experiment: two-hybrid library CCNG1.

In experiment [23] the target is T23, O3-bA.
T23 chain: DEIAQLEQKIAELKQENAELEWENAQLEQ
Kind of experiment: two-hybrid library CCNG1.

Experiment [24] concerns the target T24, O9-bA.
T24 chain: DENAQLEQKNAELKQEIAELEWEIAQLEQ
The experiment in a line: two-hybrid library CCNG1.

In experiment [25] the target is T25, O16-bA.
T25 chain: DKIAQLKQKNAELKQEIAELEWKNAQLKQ
Kind of experiment: two-hybrid library CCNG1.

Experiment [26] addresses T26, O2-bA.
T26 chain: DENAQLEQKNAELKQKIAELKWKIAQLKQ
Kind of experiment: two-hybrid library CCNG1.

The target of experiment [27] is T27, O8-bA.
T27 chain: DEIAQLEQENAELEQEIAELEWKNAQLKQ
The experiment in a line: two-hybrid library CCNG1.

For experiment [28], the target named is T28, 4H2758-AA.
T28 chain: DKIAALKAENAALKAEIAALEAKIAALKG
The experiment in a line: two-hybrid library CCmax.

The target in experiment [29] is T29, 4H2687-AA.
T29 chain: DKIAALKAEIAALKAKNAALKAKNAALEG
Kind of experiment: two-hybrid library CCmax. To be noted: mean of both orientations.

Experiment [30] concerns the target T30, 4H3409-AA.
T30 chain: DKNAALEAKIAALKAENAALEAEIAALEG
Kind of experiment: two-hybrid library CCmax. The note with it: mean of both orientations.

Experiment [31] deals with T31, 4H390-AA.
T31 chain: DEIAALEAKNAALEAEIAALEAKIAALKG
Kind of experiment: two-hybrid library CCmax. The note with it: mean of both orientations.

The target of experiment [32] is T32, 4H2512-AA.
T32 chain: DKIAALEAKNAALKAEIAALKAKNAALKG
Kind of experiment: two-hybrid library CCmax.

Experiment [33] concerns the target T33, 4H278-AA.
T33 chain: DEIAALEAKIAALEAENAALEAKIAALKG
Kind of experiment: two-hybrid library CCmax. The note with it: mean of both orientations.

The target in experiment [34] is T34, 4H2873-AA.
T34 chain: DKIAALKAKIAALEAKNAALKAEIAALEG
The experiment in a line: two-hybrid library CCmax. The note with it: mean of both orientations.

In experiment [35] the target is T35, 4H2705-AA.
T35 chain: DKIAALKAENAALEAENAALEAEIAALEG
Kind of experiment: two-hybrid library CCmax.

In experiment [36] the target is T36, 4H3625-AA.
T36 chain: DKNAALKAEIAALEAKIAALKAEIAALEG
Kind of experiment: two-hybrid library CCmax. To be noted: mean of both orientations.

The target of experiment [37] is T37, 4H775-AA.
T37 chain: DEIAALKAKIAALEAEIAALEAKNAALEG
The experiment in a line: two-hybrid library CCmax. The note with it: mean of both orientations.

Experiment [38] has as its target T38, 4H2646-AA.
T38 chain: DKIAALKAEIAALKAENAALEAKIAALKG
The experiment in a line: two-hybrid library CCmax. To be noted: mean of both orientations.

The target in experiment [39] is T39, 4H3940-AA.
T39 chain: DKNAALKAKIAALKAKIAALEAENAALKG
Kind of experiment: two-hybrid library CCmax. The note with it: mean of both orientations.

Experiment [40] has as its target T40, 4H2985-AA.
T40 chain: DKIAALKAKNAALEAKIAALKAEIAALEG
Kind of experiment: two-hybrid library CCmax. The note with it: mean of both orientations.

The target of experiment [41] is T41, 4H87-AA.
T41 chain: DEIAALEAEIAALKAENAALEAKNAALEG
The experiment in a line: two-hybrid library CCmax. To be noted: mean of both orientations.

For experiment [42], the target named is T42, 4H816-AA.
T42 chain: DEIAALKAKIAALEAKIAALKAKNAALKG
The experiment in a line: two-hybrid library CCmax. To be noted: mean of both orientations.

Experiment [43] addresses T43, 4H3134-AA.
T43 chain: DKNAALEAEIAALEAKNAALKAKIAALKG
The experiment in a line: two-hybrid library CCmax. To be noted: mean of both orientations.

The target of experiment [44] is T44, 4H510-AA.
T44 chain: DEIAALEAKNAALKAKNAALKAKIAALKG
The experiment in a line: two-hybrid library CCmax. The note with it: mean of both orientations.

In experiment [45] the target is T45, O6.
T45 chain: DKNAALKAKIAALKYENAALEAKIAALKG
The experiment in a line: two-hybrid library CCNG1.

The target in experiment [46] is T46, O3.
T46 chain: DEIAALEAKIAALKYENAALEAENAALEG
The experiment in a line: two-hybrid library CCNG1.

In experiment [47] the target is T47, O4.
T47 chain: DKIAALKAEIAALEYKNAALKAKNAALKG
Kind of experiment: two-hybrid library CCNG1.

In experiment [48] the target is T48, O2.
T48 chain: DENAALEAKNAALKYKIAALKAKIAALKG
Kind of experiment: two-hybrid library CCNG1.

In experiment [49] the target is T49, O8.
T49 chain: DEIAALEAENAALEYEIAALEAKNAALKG
Kind of experiment: two-hybrid library CCNG1.

For experiment [50], the target named is T50, O7.
T50 chain: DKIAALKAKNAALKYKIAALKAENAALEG
Kind of experiment: two-hybrid library CCNG1.

Experiment [51] addresses T51, O5.
T51 chain: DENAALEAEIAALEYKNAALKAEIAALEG
Kind of experiment: two-hybrid library CCNG1.

Experiment [52] has as its target T52, O9.
T52 chain: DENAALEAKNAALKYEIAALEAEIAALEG
The experiment in a line: two-hybrid library CCNG1.

In experiment [53] the target is T53, 4H967-bA.
T53 chain: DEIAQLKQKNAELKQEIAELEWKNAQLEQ
Kind of experiment: two-hybrid library CCNG1.

Regarding DKIAQLKQENAELEQEIAELKWKIAQLKQ [4H2702-bA], the interaction score in experiment [1] was -0.134; in [2] it was 2.39; in [3] it was 0.224; in experiment [4] it was 0.438; in [5], -1.37; in experiment [6] it was -1.86. Besides, the interaction score in [7] was -1.04; in [8] it was 1.22; in experiment [9], -1.02; in [10] it was -1.38; in experiment [11], 0.113; in experiment [12], 0.956. Besides, the interaction score in [13] is 1.03; in experiment [14], -1.27; in experiment [15] it was 2.07; in experiment [16], 1.87; in experiment [17] it was 1.82; in [18], -0.822. This molecule also registered an interaction score in experiment [19] of 2.68.
With DENAQLEQEIAELEQENAELEWKIAQLKQ [O14-bA], the interaction score in experiment [20] was 2.14; in experiment [21], 2.5; in [22], 1.69; in experiment [11] it was -0.126; in [23], -0.879; in [24] it was -0.575. The interaction score in experiment [25] is 2.36; in [26], 0.492; in experiment [18] it was -0.146; in experiment [27], -0.111.
Turning to DKNAQLKQKIAELKQKNAELKWEIAQLEQ [O13-bA], the interaction score is -1.07 in experiment [20]; 1.39 in experiment [21]; 0.182 in [22]; 0.435 in [11]; -1.05 in experiment [23]; -0.882 in experiment [24]. Also, the interaction score was -1.53 in experiment [25], -1.17 in [26], -1.31 in [18] and 0.83 in experiment [27].
DKIAALEAKNAALKAEIAALKAKNAALKG [4H2512-AA]: the interaction score is -0.837 in [28]; -1.95 in experiment [29]; 1.21 in experiment [30]; 0.0427 in [31]; 0.206 in experiment [32]; 2.22 in experiment [33]. The interaction score is -1.36 in [34]; -0.766 in experiment [35]; -1.5 in experiment [36]; -1.11 in experiment [37]; -1.05 in experiment [38]; -1.72 in experiment [39]. The interaction score in experiment [40] is 0.303; in experiment [41], -0.485; in experiment [42], -1.79; in [43] it was -0.978; in experiment [44] it was -1.85.
Regarding DENAALEAKNAALKYKIAALKAKIAALKG [O2], the interaction score in experiment [45] is -2.66; in experiment [46], -1.84; in experiment [47] it was -1.83; in experiment [48], -2.16; in experiment [49], -0.949; in [50], -2.4. The interaction score in experiment [51] was -1.97; in experiment [52], 0.313.
Take DEIAQLKQKNAELKQEIAELEWKNAQLEQ [4H967-bA]: the interaction score in experiment [11] was 1.66; in experiment [53], -0.153.
Take DEIAQLEQENAELEQKIAELKWENAQLEQ [O15-bA]: the interaction score was 1.63 in [20]; -0.551 in experiment [21]; -0.66 in experiment [22]; -1.57 in [11]; -1.21 in [23]; -0.0414 in experiment [24]. Besides, the interaction score in [25] was 2.52; in [26], -0.458; in [18] it was -0.5; in experiment [27], -0.714.
